Data taken from publication PMC10397247.

Legend:
Assay in all cases: two-hybrid library CCNG1;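 note: natural log of median RNA to DNA barcode read ratio; higher means stronger binding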
[1] = biological target: T1, 4H2673-bN
T1 chain: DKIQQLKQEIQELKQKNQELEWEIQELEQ

[2] = biological target: T2, 4H2702-bN
T2 chain: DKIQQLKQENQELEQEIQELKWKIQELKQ

[3] = biological target: T3, 4H3010-bN
T3 chain: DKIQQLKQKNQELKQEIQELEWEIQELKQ

[4] = biological target: T4, 4H3057-bN
T4 chain: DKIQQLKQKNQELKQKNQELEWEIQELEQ

[5] = biological target: T5, 4H3112-bN
T5 chain: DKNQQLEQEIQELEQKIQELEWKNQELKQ

[6] = biological target: T6, 4H3381-bH
T6 chain: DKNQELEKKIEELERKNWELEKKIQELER

[7] = biological target: T7, 4H3427-bN
T7 chain: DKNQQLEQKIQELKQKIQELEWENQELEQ

[8] = biological target: T8, 4H346-bN
T8 chain: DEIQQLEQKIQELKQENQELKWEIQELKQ

[9] = biological target: T9, 4H3926-bN
T9 chain: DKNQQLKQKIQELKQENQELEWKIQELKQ

[10] = biological target: T10, 4H4073-bN
T10 chain: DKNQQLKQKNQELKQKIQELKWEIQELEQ

[11] = biological target: T11, 4H457-bN
T11 chain: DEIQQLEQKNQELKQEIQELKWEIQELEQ

[12] = biological target: T12, 4H575-bN
T12 chain: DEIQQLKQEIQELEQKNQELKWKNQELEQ

[13] = biological target: T13, 4H683-bN
T13 chain: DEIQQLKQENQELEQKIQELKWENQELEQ

[14] = biological target: T14, 4H754-bN
T14 chain: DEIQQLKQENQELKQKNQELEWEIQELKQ

[15] = biological target: T15, 4H780-bN
T15 chain: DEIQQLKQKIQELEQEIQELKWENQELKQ

[16] = biological target: T16, 4H797-bN
T16 chain: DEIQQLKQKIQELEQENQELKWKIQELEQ

[17] = biological target: T17, 4H855-bN
T17 chain: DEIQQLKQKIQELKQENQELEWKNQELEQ

[18] = biological target: T18, 4H918-bN
T18 chain: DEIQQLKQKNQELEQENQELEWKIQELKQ

[19] = biological target: T19, 4H953-bN
T19 chain: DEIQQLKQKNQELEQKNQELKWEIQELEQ

[20] = biological target: T20, 4H968-bN
T20 chain: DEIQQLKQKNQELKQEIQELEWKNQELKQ

[21] = biological target: T21, P6A
T21 chain: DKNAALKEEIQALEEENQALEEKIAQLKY

[22] = biological target: T22, P7A
T22 chain: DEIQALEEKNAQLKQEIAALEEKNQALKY

[23] = biological target: T23, P8A
T23 chain: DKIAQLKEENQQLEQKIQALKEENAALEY

[24] = biological target: T24, P9A
T24 chain: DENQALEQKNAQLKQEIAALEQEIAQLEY

[25] = biological target: T25, 4H3189-bN
T25 chain: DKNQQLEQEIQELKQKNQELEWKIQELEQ

[26] = biological target: T26, 4H331-bN
T26 chain: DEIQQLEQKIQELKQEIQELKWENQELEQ

[27] = biological target: T27, 4H3606-bN
T27 chain: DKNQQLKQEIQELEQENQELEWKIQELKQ

[28] = biological target: T28, 4H370-bN
T28 chain: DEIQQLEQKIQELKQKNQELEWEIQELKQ

[29] = biological target: T29, 4H3782-bN
T29 chain: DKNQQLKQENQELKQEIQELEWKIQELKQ

[30] = biological target: T30, 4H3843-bN
T30 chain: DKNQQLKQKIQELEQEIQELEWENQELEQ

[31] = biological target: T31, 4H4001-bN
T31 chain: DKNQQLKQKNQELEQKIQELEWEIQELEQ

[32] = biological target: T32, 4H462-bN
T32 chain: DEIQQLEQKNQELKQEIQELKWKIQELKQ

[33] = biological target: T33, 4H568-bN
T33 chain: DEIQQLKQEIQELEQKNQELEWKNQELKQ

[34] = biological target: T34, 4H607-bN
T34 chain: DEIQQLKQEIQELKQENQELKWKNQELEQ

[35] = biological target: T35, 4H687-bN
T35 chain: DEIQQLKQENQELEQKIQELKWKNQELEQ

[36] = biological target: T36, 4H72-bN
T36 chain: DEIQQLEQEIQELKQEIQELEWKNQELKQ

[37] = biological target: T37, 4H883-bN
T37 chain: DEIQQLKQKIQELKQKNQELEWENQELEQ

[38] = biological target: T38, 4H967-bN
T38 chain: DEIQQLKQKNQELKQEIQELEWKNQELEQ

[39] = biological target: T39, P5bHq
T39 chain: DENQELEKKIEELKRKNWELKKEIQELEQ

[40] = biological target: T40, 4H3175-bA
T40 chain: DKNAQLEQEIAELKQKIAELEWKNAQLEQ

[41] = biological target: T41, 4H3277-bA
T41 chain: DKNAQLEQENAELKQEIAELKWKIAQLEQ

[42] = biological target: T42, 4H3298-bA
T42 chain: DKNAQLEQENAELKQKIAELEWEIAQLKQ

[43] = biological target: T43, 4H3462-bA
T43 chain: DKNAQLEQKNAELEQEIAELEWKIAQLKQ

[44] = biological target: T44, 4H3497-bA
T44 chain: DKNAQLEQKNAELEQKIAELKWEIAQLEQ

[45] = biological target: T45, 4H3613-bA
T45 chain: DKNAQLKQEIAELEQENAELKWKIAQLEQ

[46] = biological target: T46, 4H3628-bA
T46 chain: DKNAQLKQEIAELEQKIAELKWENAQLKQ

[47] = biological target: T47, 4H3926-bA
T47 chain: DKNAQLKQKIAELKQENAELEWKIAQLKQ

[48] = biological target: T48, 4H591-bA
T48 chain: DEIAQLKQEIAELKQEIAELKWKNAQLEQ

[49] = biological target: T49, 4H626-bA
T49 chain: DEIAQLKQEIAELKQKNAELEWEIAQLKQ

[50] = biological target: T50, 4H906-bA
T50 chain: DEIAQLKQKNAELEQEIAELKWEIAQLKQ

[51] = biological target: T51, P6bHq
T51 chain: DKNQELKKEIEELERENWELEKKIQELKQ

[52] = biological target: T52, P7bHq
T52 chain: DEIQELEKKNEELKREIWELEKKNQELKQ

[53] = biological target: T53, P8bHq
T53 chain: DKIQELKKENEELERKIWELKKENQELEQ

[54] = biological target: T54, P9bHq
T54 chain: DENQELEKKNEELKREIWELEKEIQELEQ

[55] = biological target: T55, 4H2588-bA
T55 chain: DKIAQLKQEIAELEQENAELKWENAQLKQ

[56] = biological target: T56, 4H2692-bA
T56 chain: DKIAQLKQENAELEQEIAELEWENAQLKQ

[57] = biological target: T57, 4H2717-bA
T57 chain: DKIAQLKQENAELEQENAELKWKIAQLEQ

[58] = biological target: T58, 4H2839-bA
T58 chain: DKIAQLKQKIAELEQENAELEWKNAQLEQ

[59] = biological target: T59, 4H2915-bA
T59 chain: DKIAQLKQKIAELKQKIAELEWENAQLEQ

[60] = biological target: T60, 4H3057-bA
T60 chain: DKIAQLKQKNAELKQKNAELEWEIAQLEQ

[61] = biological target: T61, 4H319-bA
T61 chain: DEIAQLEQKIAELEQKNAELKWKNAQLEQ

[62] = biological target: T62, 4H348-bA
T62 chain: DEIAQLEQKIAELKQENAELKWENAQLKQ

[63] = biological target: T63, 4H40-bA
T63 chain: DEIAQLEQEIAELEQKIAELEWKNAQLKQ

[64] = biological target: T64, 4H477-bA
T64 chain: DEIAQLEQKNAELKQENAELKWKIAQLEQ

[65] = biological target: T65, 4H492-bA
T65 chain: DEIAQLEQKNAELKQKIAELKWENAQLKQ

[66] = biological target: T66, 4H741-bA
T66 chain: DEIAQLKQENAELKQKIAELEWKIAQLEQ

[67] = biological target: T67, P6mSN
T67 chain: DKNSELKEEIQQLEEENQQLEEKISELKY

[68] = biological target: T68, P7mSN
T68 chain: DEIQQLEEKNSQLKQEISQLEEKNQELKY

[69] = biological target: T69, P8mSN
T69 chain: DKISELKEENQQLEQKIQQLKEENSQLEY

[70] = biological target: T70, P9mSN
T70 chain: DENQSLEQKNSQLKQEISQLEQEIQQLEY

B1: 4H2673-bN (peptide)
chain: DKIQQLKQEIQELKQKNQELEWEIQELEQ
interaction score [1]: 0.657 | interaction score [2]: -0.755 | interaction score [3]: 1.39 | interaction score [4]: -0.47 | interaction score [5]: -0.658 | interaction score [6]: -0.468 | interaction score [7]: -1.55 | interaction score [8]: -0.543 | interaction score [9]: -0.806 | interaction score [10]: -1.63 | interaction score [11]: -1.88 | interaction score [12]: -1.53 | interaction score [13]: -0.954 | interaction score [14]: -1.07 | interaction score [15]: -1.43 | interaction score [16]: -0.839 | interaction score [17]: -1.2 | interaction score [18]: -1.57 | interaction score [19]: -1.21 | interaction score [20]: -0.538

B2: P6A (peptide)
chain: DKNAALKEEIQALEEENQALEEKIAQLKY
interaction score [21]: -0.792 | interaction score [22]: -0.197 | interaction score [23]: -0.152 | interaction score [24]: -0.171

B3: 4H3189-bN (peptide)
chain: DKNQQLEQEIQELKQKNQELEWKIQELEQ
interaction score [25]: -1.1 | interaction score [26]: -1.93 | interaction score [27]: -0.893 | interaction score [28]: -1.02 | interaction score [29]: -1.38 | interaction score [30]: -1.81 | interaction score [31]: -1.58 | interaction score [32]: -0.731 | interaction score [33]: -0.877 | interaction score [34]: -2.38 | interaction score [35]: -0.938 | interaction score [36]: -0.483 | interaction score [16]: -0.933 | interaction score [37]: -1.35 | interaction score [18]: -0.805 | interaction score [19]: -1.88 | interaction score [38]: -1.41 | interaction score [39]: -2.13

B4: 4H3175-bA (peptide)
chain: DKNAQLEQEIAELKQKIAELEWKNAQLEQ
interaction score [40]: 0.672 | interaction score [41]: -0.717 | interaction score [42]: -0.491 | interaction score [43]: -0.259 | interaction score [44]: 0 | interaction score [45]: -0.277 | interaction score [46]: -0.531 | interaction score [47]: -0.662 | interaction score [31]: -0.893 | interaction score [48]: -1.55 | interaction score [49]: -2 | interaction score [50]: -1.09

B5: P5bHq (peptide)
chain: DENQELEKKIEELKRKNWELKKEIQELEQ
interaction score [39]: -1.33 | interaction score [51]: 0.519 | interaction score [52]: -0.58 | interaction score [53]: 0.944 | interaction score [54]: -0.517

B6: 4H2588-bA (peptide)
chain: DKIAQLKQEIAELEQENAELKWENAQLKQ
interaction score [55]: 1.71 | interaction score [56]: -0.738 | interaction score [57]: 0.0896 | interaction score [58]: 0.846 | interaction score [59]: 0.571 | interaction score [60]: -0.114 | interaction score [61]: 0.789 | interaction score [41]: -0.938 | interaction score [62]: 1.27 | interaction score [63]: -1.21 | interaction score [64]: -1.19 | interaction score [65]: 0.34 | interaction score [66]: -0.854

B7: P6mSN (peptide)
chain: DKNSELKEEIQQLEEENQQLEEKISELKY
interaction score [67]: 0.276 | interaction score [68]: -0.951 | interaction score [69]: -1.19 | interaction score [70]: -0.248
